The results in this text go back to publication PMC3946335 (Small (Weinheim an der Bergstrasse, Germany), 2013).

One series deals with recombinant MMP-14 (Homo sapiens, UniProt P50281). In kind it is biochemical. The note with it: ICT 10 mM, recombinant MMP-14 20 μg/mL, PBS buffer, 37 °C, identical conditions (2 hours); HPLC.
The test system of series [1] is MMTV-PyMT tumors. The series is described as follows: In vivo T2-weighted MR imaging of tumor accumulation. On the set-up: species or system mouse. The note with it: single IV injection: ferumoxytol 0.5 mmol Fe/kg, CLIO-ICT 0.75 mmol Fe/kg, ICT 1.0 μmol/kg; up to 24 h; n=6.
A further series has as its system MMTV-PyMT tumor cells. The series can be described thus: Caspase-3/7 assay. In kind it is cell-based, murine. The note with it: DEVD-AMC fluorescence, triplicate samples, printed as x:1.
A further series has as its system PyMT tumors. The series is described as follows: Antitumor activity, daily tumor size. In kind it is in vivo, mouse. The settings on record: calipers, daily for 7 days after single IV injection; n=6 mice.
A short description of series [2]: Dynamic Light Scattering, nanoparticle size. In kind it is physicochemical. The settings on record: nanoparticle size by DLS; PBS buffer, filtered 0.2 μm, diluted to 0.6 mM iron.
Series [3] in a line: Number of ICT molecules per nanoparticle, from FITC absorption and emission. In kind it is physicochemical. The settings on record: from attached fluorescein absorption at 492 nm and known TNP concentration.
A short description of series [4]: r1 and r2 relaxivities by NMR. In kind it is physicochemical. The note with it: relaxivity; 1 – 60 mM iron; Varian Inova 300MHz (7 Tesla) NMR.
A short description of series [5]: Iron oxide core size by TEM. In kind it is physicochemical. The settings on record: after functionalization.
Series [6] deals with MMTV-PyMT tumors. The series can be described thus: Tumor histology. In kind it is in vivo, mouse.
For series [7], the system named is normal organs (liver, spleen, kidney, brain, bone marrow and heart). The series can be described thus: Toxicity in normal organs. In kind it is in vivo, mouse. The note with it: histology and caspase-3 activity.
A short description of series [8]: Laser Doppler Electrophoresis, zeta potential. In kind it is physicochemical.
The test system of another series is 4T1 cells. The series can be described thus: Caspase-3/7 assay. In kind it is cell-based, murine. The settings on record: low MMP-14.
A further series concerns human dermal fibroblasts. The series can be described thus: Caspase-3/7 assay. In kind it is cell-based. The note with it: MMP-14 negative fibroblasts.

With “FITC-βAla-Cys-Arg-Ser-Cit-Gly-HPhe-Tyr-Leu-Tyr [ICT]”, on recombinant MMP-14, the “prodrug cleaved by MMP-14” value is recorded as 89%. Besides, in the series with MMTV-PyMT tumors [1], the “tumor enhancement on postcontrast T2-weighted MR images” value was “did not show any significant MR signal enhancement”. Further, in the series with MMTV-PyMT tumor cells, the “caspase expression ratio relative to the PBS control” value is listed as 2.994.
“FITC-βAla-Cys-Arg-Ser-Cit-Gly-HPhe-Tyr-Leu-Tyr [CLIO-ICT]”: the “change in tumor size” value in the series with PyMT tumors is on record as “overall decrease in tumor size”. The “D (DLS)” value in [2] was 21±3 nm. Further, the “# of ICT (ICT molecules per iron oxide nanoparticle)” value in series [3] is given as 4.7±0.4. In [4], this substance registered a r1 of 38.9 mM⁻¹ s⁻¹. In series [5], the “iron oxide core size” value is reported as 6.5±0.7 nm. Also, the “tumor enhancement on postcontrast T2-weighted MR images” value with MMTV-PyMT tumors [1] is “negative (dark) enhancement”. Also, the “caspase expression ratio relative to the PBS control” value with MMTV-PyMT tumor cells is reported as 2.883. Moreover, the “iron deposits in tumors (Prussian Blue)” value with MMTV-PyMT tumors [6] (48 hours after intravenous administration) is listed as “Iron deposits were noted”. Further, the “tumor necrosis (pathologic evaluation, H&E)” value in the series with MMTV-PyMT tumors [6] (MMTV-PyMT tumors) is “progressive increase in the severity of tumor necrosis”. Besides, in the series on MMTV-PyMT tumors [6] (MMTV-PyMT tumors, 48 hours after administration), the “Cy3-labeled cleaved Caspase-3 immunofluorescent staining of tumor cells” value is given as “significant labeling of tumor cells”. Moreover, the “toxicity or cell death in normal tissues” value in [7] was “no toxicity or cell death”. The “Z (zeta potential)” value in series [8] (Laser Doppler Electrophoresis, PBS buffer, filtered 0.2 μm, 0.6 mM iron) is recorded as “+21±7 meV”. Also, in [8] (sign of zeta potential, laser Doppler electrophoresis), the “charge of the nanoparticle” value is on record as “positive”. The “response to treatment (caspase assay)” value with 4T1 cells is reported as “not responsive”. The “cytotoxic effects (caspase assay)” value in the series on human dermal fibroblasts is listed as “did not show any significant cytotoxic effects”.
